Experimental data from article PMC8545396.
Several values for one entry are separate records, joined by “and”; a condition that tells them apart may be missing. Equal entries are not always repeated. Where two headings read alike, the source gives them in different places.

How the values were obtained:
[1] = target: PA-mEYFP (IAV polymerase acidic protein, influenza A/human/WSN/1933) (influenza A/human/WSN/1933) (UniProt P15659)
[2] = target: PB2-mCherry2 (IAV polymerase basic protein 2, influenza A/human/WSN/1933) (influenza A/human/WSN/1933)
[3] = target: PB1-mEGFP (IAV polymerase basic protein 1, influenza A/human/WSN/1933) (influenza A/human/WSN/1933)
[4] = target: PA-mEYFP (IAV polymerase acidic protein, influenza A/human/WSN/1933) (influenza A/human/WSN/1933) (UniProt P15659); remark: listed apart in the source
[5] = target: M2-mCherry2 (mCherry2 fused to the extracellular terminus of matrix protein 2 from influenza A/chicken/FPV/Rostock/1934) (influenza A/chicken/FPV/Rostock/1934)
[6] = target: M2-mCherry2 (mCherry2 fused to the extracellular terminus of matrix protein 2 from influenza A/chicken/FPV/Rostock/1934) (influenza A/chicken/FPV/Rostock/1934); remark: listed apart in the source
[7] = target: PB2-mCherry2 (IAV polymerase basic protein 2, influenza A/human/WSN/1933) (influenza A/human/WSN/1933); remark: listed apart in the source

Question: “PA-mEYFP (IAV polymerase acidic protein, influenza A/human/WSN/1933) (from UniProt P15659 1-716) (natural protein)” was tested. Which stoichiometry N [1] did it give?
Answer: Its stoichiometry N is 1.8.

Question: And the relative cross-correlation (rel.cc.) [2]?
Answer: Its relative cross-correlation (rel.cc.) is 0.39.

Question: Which stoichiometry N [3] does the source give for “PB1-mEGFP (IAV polymerase basic protein 1, influenza A/human/WSN/1933) (natural protein)” here?
Answer: The stoichiometry N was 2.1.

Question: What about the relative cross-correlation (rel.cc.) [2] of the same substance?
Answer: Its relative cross-correlation (rel.cc.) is 0.47.

Question: And the relative cross-correlation (rel.cc.) [4]?
Answer: The relative cross-correlation (rel.cc.) was 0.93.

Question: Which relative cross-correlation (rel.cc.) [5] does the source give for “LC3-mEYFP (from UniProt Q62625 1-120) (natural protein)” here?
Answer: Its relative cross-correlation (rel.cc.) is 0.52.

Question: And the stoichiometry N [6]?
Answer: Its stoichiometry N is 0.5 LC3:M2 and 0.25 LC3:M2.

Question: “M2-mCherry2 (mCherry2 fused to the extracellular terminus of matrix protein 2 from influenza A/chicken/FPV/Rostock/1934) (natural protein)” was tested. Which normalized molecular brightness [5] did it give?
Answer: The normalized molecular brightness was 2.24.

Question: What about the stoichiometry N [5] of the same substance?
Answer: The stoichiometry N was 3.1.

Question: How did the stoichiometry N [7] turn out when “PB2-mCherry2 (IAV polymerase basic protein 2, influenza A/human/WSN/1933) (natural protein)” was run?
Answer: The stoichiometry N was 2.2.
